The chains are these.
T1: human LAG3 (construct not stated) (human, UniProt P18627 23-450, limits assumed)
T1 construct: also called human LAG3 protein; antigen
T1 sequence (looked up): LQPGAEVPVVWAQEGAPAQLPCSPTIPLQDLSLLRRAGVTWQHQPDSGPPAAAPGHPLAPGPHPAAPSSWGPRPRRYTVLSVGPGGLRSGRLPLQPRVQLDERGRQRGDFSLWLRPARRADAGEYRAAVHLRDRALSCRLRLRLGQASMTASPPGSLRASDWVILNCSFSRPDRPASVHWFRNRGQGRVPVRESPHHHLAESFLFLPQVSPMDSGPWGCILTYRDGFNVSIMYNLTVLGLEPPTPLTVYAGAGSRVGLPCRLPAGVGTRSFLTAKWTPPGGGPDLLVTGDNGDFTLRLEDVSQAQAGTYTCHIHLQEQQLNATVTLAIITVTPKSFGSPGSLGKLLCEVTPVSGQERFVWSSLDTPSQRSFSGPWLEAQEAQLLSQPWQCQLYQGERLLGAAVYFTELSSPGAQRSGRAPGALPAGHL

T2: recombinant his-tag human LAG3-ECD protein (human, UniProt P18627 23-450)
T2 construct: extracellular domain; not shown: his tag
T2 sequence (looked up): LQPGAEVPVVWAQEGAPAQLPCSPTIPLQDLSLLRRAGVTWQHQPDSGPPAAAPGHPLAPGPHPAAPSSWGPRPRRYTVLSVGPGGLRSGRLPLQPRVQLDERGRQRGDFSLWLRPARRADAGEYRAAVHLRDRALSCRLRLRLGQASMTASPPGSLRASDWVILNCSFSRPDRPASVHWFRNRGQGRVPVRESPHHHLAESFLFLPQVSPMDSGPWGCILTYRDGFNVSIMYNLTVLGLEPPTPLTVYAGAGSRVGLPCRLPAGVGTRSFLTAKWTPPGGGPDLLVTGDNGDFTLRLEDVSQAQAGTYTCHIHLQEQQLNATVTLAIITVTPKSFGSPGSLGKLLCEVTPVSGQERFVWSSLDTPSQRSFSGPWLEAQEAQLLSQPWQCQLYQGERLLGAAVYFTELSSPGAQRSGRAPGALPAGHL

B1: 147H-3 (antibody, V domains shown)
VH: QVQLVQSGAEVKKPGASVKVSCKASGYTFTNYWLGWVRQAPGQGLEWMGDIYPGGDYINYNEKFKGRVTLTADTSISTAYMELSRLRSDDTAVYYCARPNLPGDYWGQGTTVTVSS
VL: DIVMTQSPLSLPVTPGEPASISCRSSKSLLHSNGITYLYWYLQKPGQSPQLLIYQVSNLASGVPDRFSGSGSGTDFTLKISRVEAEDVGVYYCAQNLELPWTFGGGTKVEIK
notes: Common light chain; human gamma 1 / kappa constant domains
B2: 147H-8 (antibody, V domains shown)
VH: EVQLVQSGAEVKKPGASVKVSCKASGYTFTNYWLGWVRQAPGQGLEWMGDIYPGGDYINYNEKFKGRVTMTRDTSISTAYMELSRLRSDDTAVYYCARPNLPGDYWGQGTTVTVSS
VL: DIVMTQSPLSLPVTPGEPASISCRSSKSLLHSNGITYLYWYLQKPGQSPQLLIYQVSNLASGVPDRFSGSGSGTDFTLKISRVEAEDVGVYYCAQNLELPWTFGGGTKVEIK
notes: as for B1
B3: 147H-10 (antibody, V domains shown)
VH: EVQLVQSGAEVKKPGASVKVSCKASGYTFTNYWLGWVRQAPGQGLEWMGDIYPGGDYINYNEKFKGRVTLTADTSISTAYMELSRLRSDDTAVYYCARPNLPGDYWGQGTTVTVSS
VL: DIVMTQSPLSLPVTPGEPASISCRSSKSLLHSNGITYLYWYLQKPGQSPQLLIYQVSNLASGVPDRFSGSGSGTDFTLKISRVEAEDVGVYYCAQNLELPWTFGGGTKVEIK
notes: as for B1
B4: 147H-12 (antibody, V domains shown)
VH: EVQLVQSGAEVKKPGASVKVSCKASGYTFTNYWLGWVRQAPGQGLEWIGDIYPGGDYINYNEKFKGKATLTADTSISTAYMELSRLRSDDTAVYYCARPNLPGDYWGQGTTVTVSS
VL: DIVMTQSPLSLPVTPGEPASISCRSSKSLLHSNGITYLYWYLQKPGQSPQLLIYQVSNLASGVPDRFSGSGSGTDFTLKISRVEAEDVGVYYCAQNLELPWTFGGGTKVEIK
notes: as for B1
B5: 147H-4 (antibody, V domains shown)
VH: QVQLVQSGAEVKKPGASVKVSCKASGYTFTNYWLGWVRQAPGQGLEWMGDIYPGGDYINYNEKFKGKATLTADTSISTAYMELSRLRSDDTAVYYCARPNLPGDYWGQGTTVTVSS
VL: DIVMTQSPLSLPVTPGEPASISCRSSKSLLHSNGITYLYWYLQKPGQSPQLLIYQVSNLASGVPDRFSGSGSGTDFTLKISRVEAEDVGVYYCAQNLELPWTFGGGTKVEIK
notes: as for B1
B6: 147H-9 (antibody, V domains shown)
VH: EVQLVQSGAEVKKPGASVKVSCKASGYTFTNYWLGWVRQAPGQGLEWMGDIYPGGDYINYNEKFKGRVTMTADTSISTAYMELSRLRSDDTAVYYCARPNLPGDYWGQGTTVTVSS
VL: DIVMTQSPLSLPVTPGEPASISCRSSKSLLHSNGITYLYWYLQKPGQSPQLLIYQVSNLASGVPDRFSGSGSGTDFTLKISRVEAEDVGVYYCAQNLELPWTFGGGTKVEIK
notes: as for B1
B7: 147H-5 (antibody, V domains shown)
VH: QVQLVQSGAEVKKPGASVKVSCKASGYTFTNYWLGWVRQAPGQGLEWIGDIYPGGDYINYNEKFKGKATLTADTSISTAYMELSRLRSDDTAVYYCARPNLPGDYWGQGTTVTVSS
VL: DIVMTQSPLSLPVTPGEPASISCRSSKSLLHSNGITYLYWYLQKPGQSPQLLIYQVSNLASGVPDRFSGSGSGTDFTLKISRVEAEDVGVYYCAQNLELPWTFGGGTKVEIK
notes: as for B1
B8: NLAG3-HDB169-S87 (antibody, human IgG1, V domains shown)
VH: QVQLVQSGAEVKKPGSSVKVSCKASGGTFSSYAISWVRQAPGQGLEWMGGIIPIFGTANYAQKFQGRVTITADESTSTAYMELSSLRSEDTAVYYCAKDIRWYYGMDVWGQGTTVTVSS
VL: DIVMTQSPSSVSAFVGDRVTITCRASQGVSSWLAWFQQKPGKAPKLLIYAASTLQSGVPSRFSGRGYGTEFTLTISSLQPEDLATYYCQQVKSFPLTFGGGTKVDIKR
notes: Short label tied by its unique suffix
B9: NLAG3-HDB169-S24 (antibody, human IgG1, V domains shown)
VH: QVQLVQSGAEVKKPGSSVKVSCKASGGTFSSYAISWVRQAPGQGLEWMGGIIPIFGTANYAQKFQGRVTITADESTSTAYMELSSLRSEDTAVYYCTREPHFDYWGQGTLVTVSS
VL: EIVMTQSPSSLSASVGDRVTITCQASQDISNYLNWYQQKPGKAPKLLIYDASNLETGVPSRFSGSGSGTEFTLTISSLRPEDFATYFCQQADSFPITFGQGTRLEIKR
notes: as for B8
B10: NLAG3-HDB323-S20 (antibody, human IgG1, V domains shown)
VH: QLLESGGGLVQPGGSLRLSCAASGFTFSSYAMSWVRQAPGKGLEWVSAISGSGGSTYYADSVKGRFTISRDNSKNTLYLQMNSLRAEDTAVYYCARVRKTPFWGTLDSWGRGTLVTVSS
VL: VIWMTQSPSSLSASVGDRVTITCRASQGVSSYLAWYQQKPGKAPKLLIYAASSLQSGVPSRFSGSGSGTEFTLTISSLQPEDFATYYCQQTNWFPLTFGPGTRLEIKR
notes: Human IgG1 / kappa (pFUSEss-CHIg-hG1, pFUSE2ss-CLIg-hk); Short label tied by its unique suffix
B11: NLAG3-HDB169-S128 (antibody, human IgG1, V domains shown)
VH: QVQLVQSGAEVKKPGSSVKVSCKASGGTFSSYAISWVRQAPGQGLEWMGGIIPIFGTANYAQKFQGRVTITADESTSTAYMELSSLRSEDTAVYYCARDAGPVGYYGMDVWGQGTMVTVSS
VL: AIQMTQSPSSLSASVGDRVTITCRASQGISSWLAWYQQKPGKAPKLLIYAASSLQSGVPSRFSGSGSGTDFTLTISRLQPEDFATYYCQQAKSFPLTFGGGTKVEIKR
notes: as for B8
B12: NLAG3-HDB169-S120 (antibody, human IgG1, V domains shown)
VH: QVQLVQSGAEVKKPGSSVKVSCKASGGTFSSYAISWVRQAPGQGLEWMGGIIPIFGTANYAQKFQGRVTITADESTSTAYMELSSLRSEDTAVYYCARSGDRYDFWSGYWGQGTLVTVSS
VL: EIVLTQSPSSVSASVGDRVTITCRASRGISSWLAWYQQKPGKAPKLLIYAASTLQSGVPSRFSGSGSGTDFTLTISSLQPEDFATYYCQQAKSFPLTFGGGTKVEIKR
notes: as for B8
B13: Hu1210-40 (antibody, V domains shown)
VH: EVQLVESGGGLVQPGGSLRLSCAASGFTFSSYDMSWVRQAPGKSLEWVATISEGGGYIYYSDSVKGRFTISRDNAKNSLYLQMNSLRDEDTAVYICAREFGKRYALDYWGQGTTVTVSS
VL: DIQMTQSPSSLSASVGDRVTITCKASQDVTPAVAWYQQKPGKAPKLLIYSTSSRYTGVPSRFSGSGSGTDFTFTISSLQPEDIATYYCQQHYTTPLTFGQGTKLEIK
notes: Hu1210 VH.4c x Vk.1; human gamma 1 / kappa constant domains
B14: Hu1210-28 (antibody, V domains shown)
VH: EVQLVESGGGLVQPGGSLRLSCAASGFTFSSYDMSWVRQAPGKGLEWVATISDGGGYIYYSDSVKGRFTISRDNAKNSLYLQMNSLRAEDTAVYICAREFGKRYALDYWGQGTLVTVSS
VL: DIQMTQSPSSLSASVGDRVTITCKASQDVTPAVAWYQQKPGKAPKLLIYSTSSRYTGVPDRFTGSGSGTDFTLTISSLQPEDFATYYCQQHYTTPLTFGQGTKLEIKR
notes: Hu1210 VH.5a x Vk.2a; human gamma 1 / kappa constant domains
B15: Hu1210-42 (antibody, V domains shown)
VH: EVQLVESGGGLVQPGGSLRLSCAASGFTFSSYDMSWVRQAPGKSLEWVATISDVGGYIYYSDSVKGRFTISRDNAKNSLYLQMNSLRDEDTAVYICAREFGKRYALDYWGQGTTVTVSS
VL: DIQMTQSPSSLSASVGDRVTITCKASQDVTPAVAWYQQKPGKAPKLLIYSTSSRYTGVPSRFSGSGSGTDFTFTISSLQPEDIATYYCQQHYTTPLTFGQGTKLEIK
notes: Hu1210 VH.4e x Vk.1; human gamma 1 / kappa constant domains

T3 sequence (Q9NZQ7 19-239 limits assumed): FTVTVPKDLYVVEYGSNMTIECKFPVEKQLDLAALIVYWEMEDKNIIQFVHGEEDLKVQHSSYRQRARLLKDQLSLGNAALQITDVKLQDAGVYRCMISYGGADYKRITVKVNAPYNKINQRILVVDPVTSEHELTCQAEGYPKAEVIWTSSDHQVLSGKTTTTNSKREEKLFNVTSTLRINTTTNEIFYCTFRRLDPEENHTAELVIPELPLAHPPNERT

One experiment concerns the target T1, human LAG3 (construct not stated). The experiment in a line: BLI Octet Red 96, affinity ranking.
Usually Kd stands for the equilibrium constant for the complex coming apart. By koff is commonly meant the first-order rate constant of dissociation. Broadly, the kon is the rate constant with which the complex forms. For the molecule B1, the Kd came out at 36.5 nM, the koff is 0.00338 s⁻¹ and the kon turned out to be 92500 M⁻¹ s⁻¹.
B2 displayed a Kd of 32.3 nM, a koff of 0.00533 s⁻¹ and a kon of 165000 M⁻¹ s⁻¹.
Molecule B3 registered a Kd of 82.3 nM, a koff of 0.00404 s⁻¹ and an association rate constant (kon) of 49100 M⁻¹ s⁻¹.
The molecule B4 yielded a Kd of 55.2 nM, a koff of 0.00344 s⁻¹ and a kon of 62300 M⁻¹ s⁻¹.
The matching figures for B5: 39.8 nM, 0.00343 s⁻¹ and 86200 M⁻¹ s⁻¹.
B6: binding was put at a Kd of 66.4 nM, the koff came to 0.00448 s⁻¹ and the kon was 67400 M⁻¹ s⁻¹.
On to B7, for which the Kd was 31.3 nM, the koff turned out to be 0.003 s⁻¹ and the kon worked out at 95800 M⁻¹ s⁻¹.

The target of a further experiment is T2, recombinant his-tag human LAG3-ECD …. Put plainly: SPR Biacore T200, antibody captured by anti-human Fc, LAG3-ECD-his injected. Here is the method: The binding of the S20, S24, S27, S31, S87, S119, S120, S128, S136, S161 and T99 antibodies to recombinant his-tag human LAG3-ECD protein was examined by Biacore T200 using a capture method. Anti-LAG3 antibodies were captured using anti-human Fc antibody. The anti-human Fc antibody was coated on chip. Serial concentrations of his-tag human LAG3-ECD protein (0-4 nM) were injected over capture antibodies at the flow rate of 30 μl/min. The dissociation phase was 900 s or 550 s. The Biacore results for the anti-LAG3 antibodies have shown that these anti-LAG3 antibodies are high affinity binder to human LAG3.
For B8, the Kd is 0.00251 nM, the koff amounted to 2.33e-06 s⁻¹ and the kon turned out to be 928000 M⁻¹ s⁻¹.
On to B9, for which the Kd was 6.73 nM, the koff was determined as 0.012 s⁻¹ and the kon is 1.79e+06 M⁻¹ s⁻¹.
Turning to B10, the dissociation constant Kd was 0.0443 nM, the koff was determined as 7.33e-06 s⁻¹ and the kon is 165000 M⁻¹ s⁻¹.
The matching figures for B11: 0.815 nM, 0.000817 s⁻¹ and 1e+06 M⁻¹ s⁻¹.
The matching figures for B12: 1.88 nM, 0.00264 s⁻¹ and 1.4e+06 M⁻¹ s⁻¹.

A further experiment concerns the target T3, human PD-L1-his taq protein (human, UniProt Q9NZQ7 19-239, limits assumed).
T3 construct: also called recombinant PD-L1 protein; recombinant human PD-L1; not shown: his tag
Put plainly: SPR Biacore T200, antibody captured, PD-L1-his injected. Here is the method:
The binding of the humanized antibodies to recombinant PD-L1 protein (human PD-L1-his taq) was tested by BIACORE™ using a capture method. The HL1210-3 mouse mAb were captured using anti-mouse Fc antibody coated on a CM5 chip. A series dilution of human PD-L1-his taq protein was injected over captured antibody for 3 mins at a flow rate of […]. The antigen was allowed to dissociate for 900 s. All the experiments were carried out on a Biacore T200.
B13 registered a dissociation constant Kd of 1.49 nM, a koff of 0.000131 s⁻¹ and a kon of 87700 M⁻¹ s⁻¹.
In the case of B14, the Kd turned out to be 0.838 nM, the koff came to 0.000108 s⁻¹ and the kon worked out at 129000 M⁻¹ s⁻¹.
The molecule B15 showed a Kd of 0.867 nM, an off-rate (koff) of 7.53e-05 s⁻¹ and a kon of 86800 M⁻¹ s⁻¹.

These data come from patent US20220363763A1 (ABL BIO, published 2022).
